Sequences and labels used below:
B1: VcDnaB, replicative helicase DnaB from Vibrio cholerae (enzyme)
chain: MADPRTDNRNRKIPDAQVDAIKVPPHSLEAEQSVIGGLLLDNERWDTVSEHVMTQDFYSRPHRLIFDGVKSILEAGKPLDLITLSEYLEQREQLEDVGGFAYLADLAKNTPSAANINAYAEIVAERALVRNLIGVANEIADAGYDPQGRNAEDLLDLAESKVFAIAEARTSENEGPKNVDSILERTLERIELLYKTPQDGVTGVNTGFTDLNKKTAGLQGSDLIIVAARPSMGKTTFAMNLCENAAMEQDKPVLIFSLEMPAEQIMMRMLASLSRVDQTKIRTGQLDDEDWARISSTMGILMEKKNMYIDDSSGLTPTEVRSRARRIAREHGGLSLIMVDYLQLMRVPALTDNRTLEIAEISRSLKALAKELNVPVVALSQLNRSLEQRADKRPVNSDLRESGSIEQDADLIMFIYRDEVYHPDSPLKGTAEIIIGKQRNGPIGSVRLTFQGHYSRFDNYAGPAFDDE
B2: VcDnaB, replicative helicase DnaB from Vibrio cholerae (enzyme)
chain: B1 chain
B3: EcDnaC, helicase loader DnaC from E. coli (natural protein)
chain: MKNVGDLMQRLQKMMPAHIKPAFKTGEELLAWQKEQGAIRSAALERENRAMKMQRTFNRSGIRPLHQNCSFENYRVECEGQMNALSKARQYVEEFDGNIASFIFSGKPGTGKNHLAAAICNELLLRGKSVLIITVADIMSAMKDTFRNSGTSEEQLLNDLSNVDLLVIDEIGVQTESKYEKVIINQIVDRRSSSKRPTGMLTNSNMEEMTKLLGERVMDRMRLGNSLWVIFNWDSYRSRVTGKEY

In series [1] the target is VcDnaB, replicative helicase DnaB from Vibrio cholerae (Vibrio cholerae). The series is described as follows: SEC-SAXS. For orientation: SEC sorts molecules by how far they enter the pores of the column.
Series [2] has the same target. The series is described as follows: SPR.
The series “crystal structure” concerns the molecule itself. Description: crystal structure.
The series “SEC-MALS” concerns the molecule itself. Description: SEC-MALS.
The next series has as its target EcDnaB^G299S (E. coli, UniProt P0ACB0 1-471, G299S). Description: SPR. In general terms: SPR reads the build-up and loss of mass on a sensor chip optically.
In a further series the target is VcDnaB^S296G (Vibrio cholerae, UniProt A0A085R2T8 1-468, S296G). The series is described as follows: SPR.
For series [3], the target named is B1. Description: SPR.

The source of these data is PMC8216460 (Nucleic Acids Research, 2021).

With “VcDciA, DciA from Vibrio cholerae (natural protein)”, in series [1], the stoichiometry N (VcDciA per VcDnaB hexamer) turned out to be 3. Further, the stoichiometry N (VcDciA per 6 VcDnaB) in series [2] was found to be 3.
Consider B1, for which the stoichiometry N (usually the number of molecules, sites or subunits per partner or assembly) in “crystal structure” came out at 6 subunits.
As for B2, the “stoichiometry N” value in “SEC-MALS” came to 6.
For B3, in the series with EcDnaB^G299S, the “fold change of the dissociation rate against EcDnaB” value was 2 fold. In addition, the binding result (in the series with VcDnaB^S296G; in series [3]) was “binds” each time.
